Test results taken from US20110038869A1 (Genmab, published 2011).

B1: Antibody 016 (antibody, human IgG1, V domains shown)
VH: QVQLVESGGGVVQPGRSLRLSCAASGFTFSSYGIHWVRQAPGKGLEWVAVIGYDGSDKNYADSVKGRFTIFRDNSKNTLYLQMNSLRAEDTAVYYCARDQLGDAFDIWGQGTMVTVSS
VL: EIVLTQSPATLSLSPGERATLSCKASQSVSSSLAWYQQKPGQAPRLLIYDASNRATGIPARFSGSGSGTDFTLTISSLEPEDFAVYYCQQRSNWPPYTFGQGTKLEIKR
notes: Human antibody; also called HuMab 016
B2: Antibody 053 (antibody, human IgG1, V domains shown)
VH: QVQLVESGGGVVQPGRSLRLSCAVSGFTFRSYGMHWVRQAPGKGLEWVAVIWYDGSIKYYADSVKGRFTISRDNSKNTLYLQMNSLRAEDTAVYFCAREGGRDAFDIWGQGTMVTVSS
VL: AVQLTQSPSSLSASVGDRVTITCRASQGISSALAWYQQKPGKAPKLLIYDASSLESGVPSRFSGSGSGTDFTLTISSLQPEDFATYCCQQFNSYPHTFGGGTKVEIKR
notes: Human antibody; also called HuMab 053
B3: Antibody 063 (antibody, human IgG1, V domains shown)
VH: EVQLLESGGGLVQPGGSLRLSCAASGFTFSSYAMSWVRQAPGKGLEWVSAISDSGGSTYYADSVKGRFTISRDNSKNTLYLQMNSLRAEDTAAYYCAKEIAVALFDYWGQGTLVTVSS
VL: EIVLTQSPATLSLSPGERATLSCRASQSVSSYLAWYQQKPGQAPRLLIYDASNRATGIPARFSGSGSGTDFTLTISSLEPEDFAVYYCQQRSSWPPYTFGQGTKLEIKR
notes: Human antibody; also called HuMab 063

What was measured:
[1] = target: T1, CD32bECDHis (human, UniProt P31994 43-223, limits assumed); test: SPR BIAcore 3000, antibody immobilized, CD32bECDHis analyte
T1 construct: Produced in HEK-293F cells; also called extracellular domain of CD32b with C-terminal His tag; soluble CD32b
T1 sequence (looked up): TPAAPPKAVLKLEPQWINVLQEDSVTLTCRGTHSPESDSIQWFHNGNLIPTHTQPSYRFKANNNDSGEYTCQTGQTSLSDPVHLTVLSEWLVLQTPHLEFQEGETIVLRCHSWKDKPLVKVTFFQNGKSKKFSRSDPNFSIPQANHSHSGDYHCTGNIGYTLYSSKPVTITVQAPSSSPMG
Method: Antibody binding to CD32a and CD32b was analyzed by surface plasmon resonance in a BIAcore 3000 (GE Healthcare). CD32aECDHis and CD32bECDHis derived from HEK293 cells were used for the analysis. HuMab antibodies were immobilized on the CM-5 sensor chip according to the procedure recommended by the manufacturer. Briefly, after surface activation by EDC and NHS HuMab antibody was injected over the activated CM-5 surface in 10 mM sodium-acetate, pH ranging from 4.0 to 5.5 at 5 μl/min. followed by 1 M Ethanolamine for deactivation. Concentration series of CD32bECDHis in HBS-EP buffer were injected over the immobilized antibodies at a flow rate of 30 μl/min for 180 sec. Regeneration of the HuMab surface was performed by injection of 10 mM Glycine-HCl pH 2.0 or 10 mM sodium acetate pH 3.0. […] Kinetic analysis is performed using double reference subtraction and model 1:1 (langmuir) binding analysis. Specificity was studied by injecting CD32aECDHis at a concentration of […] over immobilized HuMab and isotype control antibodies under the same conditions as for the CD32b measurements.

[2] = target: T2, full length CD32a on stably transfected IIA1.6 cells (human, UniProt P12318 34-317); test: flow cytometry on IIA1.6-CD32a cells
T2 construct: whole, on cells; also called IIA1.6-CD32a; CD32a-expressing IIA1.6 cells
T2 sequence (looked up): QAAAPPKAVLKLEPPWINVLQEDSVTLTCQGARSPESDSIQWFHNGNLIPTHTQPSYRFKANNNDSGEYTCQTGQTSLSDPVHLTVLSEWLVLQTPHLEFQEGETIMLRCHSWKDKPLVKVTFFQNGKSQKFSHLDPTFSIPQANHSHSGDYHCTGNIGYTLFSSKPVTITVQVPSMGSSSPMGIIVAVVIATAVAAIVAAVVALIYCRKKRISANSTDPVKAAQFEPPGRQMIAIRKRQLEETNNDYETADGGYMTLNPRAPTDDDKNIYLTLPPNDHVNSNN
Method: (§1) After harvesting and counting, IIA1.6 cells stably transfected with full length CD32a and CD32b (van den Herik-Oudijk et al., 1994), control IIA1.6 cells and Daudi-luc cells were resuspended in PBS (1×10⁶ cells/ml). Cells were put in 96-well V-bottom plates (100 μl/well) and washed twice with FACS buffer (PBS supplemented with 0.1% BSA and 0.02% Na-azide). Thereafter, 50 μl of serially diluted HuMab in FACS buffer was added to the cells and incubated for 30 minutes at 4° C. After washing three times with FACS buffer, 50 μl of phycoerythrin (PE)-conjugated rabbit anti-human IgG (Jackson ImmunoResearch Europe), diluted 1:200 in FACS buffer, was added. After 30 minutes at 4° C. (in the dark), cells were washed three times, and specific binding of the HuMabs was detected by flow cytometry on a FACSCalibur (BD Biosciences). […] Binding curves were analyzed using non-linear regression (sigmoidal dose-response with variable slope) using GraphPad Prism V4.03 software (GraphPad Software, San Diego, Calif., USA).

[3] = target: T3, full length CD32b2 on transfected IIA1.6 cells (human, UniProt P31994-2 43-291); test: flow cytometry on IIA1.6-CD32b2 cells
T3 construct: whole, on cells; also called IIA1.6-CD32b2
T3 sequence (looked up): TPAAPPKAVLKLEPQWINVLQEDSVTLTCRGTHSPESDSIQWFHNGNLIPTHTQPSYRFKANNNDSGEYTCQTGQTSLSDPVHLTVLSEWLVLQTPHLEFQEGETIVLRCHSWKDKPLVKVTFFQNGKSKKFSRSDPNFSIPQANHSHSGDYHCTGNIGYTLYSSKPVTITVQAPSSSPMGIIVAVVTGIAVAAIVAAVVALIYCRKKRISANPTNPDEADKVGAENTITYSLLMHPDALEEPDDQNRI
Method: as §1
To analyze binding of anti-CD32b HuMabs to CD32b1 and CD32b2, IIA1.6 cells transfected with full length CD32b1 or CD32b2 (van den Herik-Oudijk et al., 1994) were prepared as described supra. The assay was performed as described supra. Flow cytometry was performed on a FACS Canto II (BD Biosciences).

[4] = target: T1, CD32bECDHis; test: ELISA on coated CD32bECDHis
Method: The specificity of the obtained anti-CD32b HuMabs was evaluated by ELISA. ELISA plates (Microlon; Greiner Bio-One) were coated overnight at 4° C. with 2 μg/ml of CD32aECDHis and CD32bECDHis in PBS, pH 7.4. Coated ELISA plates were washed with PBS, blocked for one hour at room temperature with 2% (v/v) chicken serum (Gibco, Paisley, Scotland) in PBS and washed again with PBS. Subsequently, HuMabs, serially diluted in PBSTC (PBS supplemented with 2% (v/v) chicken serum and 0.05% (v/v) Tween-20), were incubated for 1 hr at RT under shaking conditions (300 rpm). Bound HuMabs were detected using HRP-conjugated goat-anti-human IgG antibodies (Jackson ImmunoResearch Europe) diluted 1:10,000 in PBSTC, which were incubated for 1 hr at RT under shaking conditions (300 rpm). […] Binding curves were analyzed using non-linear regression (sigmoidal dose-response with variable slope) using GraphPad Prism V4.03 software.

[5] = target: T1, CD32bECDHis; test: TR-FRET competition against HuMab-KLH-AlexaFluor 647
From the text: To study the interaction of anti-CD32b HuMabs with CD32b and CD32a in more detail TR-FRET technology was applied. To this end, CD32bECDHis and CD32aECDHis were labeled with a fluorescent donor molecule directed against the histidine tag (Anti-6×His Europium3+, PerkinElmer, Boston Mass.).
Briefly, all dilutions were made in 0.5× Lance detection buffer (PerkinElmer, Boston Mass.) supplemented with 0.2% BSA (obtained via dilution of 7.5% BSA Stabilizer solution, cat: CR84-100, PerkinElmer) and 0.03% (v/v) Tween-20 (Riedel de Haen, Seelze, Germany). CD32bECDHis and CD32aECDHis were diluted to 0.5 μg/ml. […] Anti-6×His Europium3+ (PerkinElmer, Boston Mass.) was diluted to 0.15 μg/ml. A 4-fold serial dilution of the tested HuMab antibody was made in a 96 wells non-binding plate (cat. 650261, Greiner Bio-one, Frickenhausen, Germany), ranging from 10 μg/ml-0.04 ng/ml. […] After overnight incubation at 4° C. in the dark, fluorescence was measured using an EnVision 2101 Multilabel reader (PerkinElmer, Boston, Mass.) applying the following settings; Lance/Delfia dual mirror, emission filter 615-665 nm, excitation filter 320 nm, delay time 60 μs, window 100 μs, 100 flashes, 2000 μs per cycle and bidirectional row-by-row reading. Binding curves were analyzed using non-linear regression (sigmoidal dose-response with variable slope) using GraphPad Prism V4.03 software (GraphPad Software, San Diego, Calif., USA).

[6] = target: T4, biotinylated CD32bECDHis (human, UniProt P31994 43-223, limits assumed, biotinylated (sites not given)); test: competition ELISA, competitor 2B6
T4 sequence (looked up): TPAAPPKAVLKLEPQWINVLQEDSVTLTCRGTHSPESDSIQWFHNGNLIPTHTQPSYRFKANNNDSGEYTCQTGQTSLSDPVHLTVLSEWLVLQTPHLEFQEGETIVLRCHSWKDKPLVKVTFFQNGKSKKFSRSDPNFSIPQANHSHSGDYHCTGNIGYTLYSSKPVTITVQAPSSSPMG
Method: (§2) ELISA wells were coated overnight at 4° C. with anti-CD32b HuMabs serially diluted in PBS. The ELISA wells were washed with PBS, blocked for one hour at room temperature with 2% (v/v) chicken serum (Gibco, Paisley, Scotland) in PBS and washed again with PBS. Subsequently, the immobilized antibodies were incubated with biotinylated CD32bECDHis serially diluted in PBSTC. After washing with PBS/Tween, bound biotinylated CD32bECDHis was incubated with Streptavidin-poly-HRP (Sanquin, Amsterdam, The Netherlands) for 1 hr at RT an the reaction was developed as described supra.
(§3) To this end, ELISA wells coated with anti-CD32b HuMabs were incubated in the presence of an excess of CD32b-specific antibody and the predetermined concentration of biotinylated CD32bECDHis in fluid phase. The reaction was developed as described.

[7] = target: T4, biotinylated CD32bECDHis; test: competition ELISA, competitor 063
Method: as §2, §3

[8] = target: T4, biotinylated CD32bECDHis; test: competition ELISA, competitor 034
Method: as §2, §3

[9] = target: T4, biotinylated CD32bECDHis; test: competition ELISA, competitor 024
Method: as §2, §3

[10] = target: T4, biotinylated CD32bECDHis; test: competition ELISA, competitor 026
Method: as §2, §3

[11] = target: T4, biotinylated CD32bECDHis; test: competition ELISA, competitor 053
Method: as §2, §3

[12] = target: T4, biotinylated CD32bECDHis; test: competition ELISA, competitor 016
Method: as §2, §3

[13] = target: T4, biotinylated CD32bECDHis; test: competition ELISA, competitor 028
Method: as §2, §3

[14] = target: T4, biotinylated CD32bECDHis; test: competition ELISA, competitor 038
Method: as §2, §3

[15] = target: T4, biotinylated CD32bECDHis; test: competition ELISA, competitor 022
Method: as §2, §3

[16] = target: T4, biotinylated CD32bECDHis; test: competition ELISA, competitor 020
Method: as §2, §3

Binder | Kd [1] | koff [1] | kon [1] | EC50 [2] | EC50 [3] | EC50 [4] | IC50 [5] | % residual binding [6] | % residual binding [7] | % residual binding [8] | % residual binding [9] | % residual binding [10] | % residual binding [11] | % residual binding [12] | % residual binding [13] | % residual binding [14] | % residual binding [15] | % residual binding [16] | % of maximal Fab-mediated inhibition [5]
B1 | 1.1 nM | 0.0028 s⁻¹ | 2.66e+06 M⁻¹ s⁻¹ | 0.25 nM | 0.11 nM | 0.28 nM | 0.24 nM |  |  |  |  |  |  |  |  |  |  |  | 
B2 |  |  |  |  | 1.06 nM |  |  | 195% | 43% | 4% | 6% | 26% | 40% | 98% | 13% | 168% | 8% | 19% | 
B3 |  |  |  |  |  |  |  | 98% | 0% | 8% | 23% | 70% | 79% | 103% | 49% | 102% | 29% | 59% | ~70%
